Assay results: EP1992633A1 (HUMAN GENOME SCIENCES, INC., dated 2008)

What was measured:
Experiment in all cases: method not described (cites Mazzei et al. 1995)
TNFR1 = biological target: T1, TNFR1 (UniProt P19438 30-211, limits assumed)
T1 sequence (looked up): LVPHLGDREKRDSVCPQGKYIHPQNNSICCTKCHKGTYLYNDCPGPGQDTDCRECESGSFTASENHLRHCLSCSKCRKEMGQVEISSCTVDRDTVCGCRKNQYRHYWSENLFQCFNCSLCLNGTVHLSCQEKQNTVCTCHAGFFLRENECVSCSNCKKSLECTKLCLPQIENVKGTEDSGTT

TNFR2 = biological target: T2, TNFR2 (UniProt P20333 23-257, limits assumed)
T2 sequence (looked up): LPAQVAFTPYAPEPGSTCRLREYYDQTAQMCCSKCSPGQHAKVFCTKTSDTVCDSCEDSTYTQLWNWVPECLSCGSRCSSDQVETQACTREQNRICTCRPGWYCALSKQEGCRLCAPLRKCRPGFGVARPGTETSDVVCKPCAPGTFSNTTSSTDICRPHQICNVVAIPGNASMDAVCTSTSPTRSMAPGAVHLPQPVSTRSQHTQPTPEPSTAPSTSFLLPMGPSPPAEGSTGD

DR3 = biological target: T3, DR3 (UniProt Q93038 25-199, limits assumed)
T3 sequence (looked up): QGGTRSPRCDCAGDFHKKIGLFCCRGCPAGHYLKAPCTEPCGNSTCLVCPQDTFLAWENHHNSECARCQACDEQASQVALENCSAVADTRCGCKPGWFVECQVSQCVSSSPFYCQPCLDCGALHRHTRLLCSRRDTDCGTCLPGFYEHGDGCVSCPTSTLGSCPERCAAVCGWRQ

DR4 = biological target: T4, DR4 (UniProt O00220 24-239, limits assumed)
T4 sequence (looked up): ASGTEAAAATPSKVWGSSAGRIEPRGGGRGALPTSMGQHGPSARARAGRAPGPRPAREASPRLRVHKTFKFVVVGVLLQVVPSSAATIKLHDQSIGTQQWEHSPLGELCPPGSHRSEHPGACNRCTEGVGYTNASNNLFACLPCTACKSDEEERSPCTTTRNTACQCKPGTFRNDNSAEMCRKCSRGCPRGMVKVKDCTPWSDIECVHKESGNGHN

Fas = biological target: T5, Fas (UniProt P25445 26-173, limits assumed)
T5 sequence (looked up): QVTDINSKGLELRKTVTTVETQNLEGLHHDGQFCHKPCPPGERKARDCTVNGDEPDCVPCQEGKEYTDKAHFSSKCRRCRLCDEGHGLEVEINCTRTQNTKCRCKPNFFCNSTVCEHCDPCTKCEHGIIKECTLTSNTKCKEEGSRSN

Measured: binding result

B1: truncated version of VEGI-alpha corresponding to the putative extracellular domain consisting of residues 38-174, expressed in E. coli (ligand)
chain: ALHWEHELGLAFTKNRMNYTNKFLLIPESGDYFIYSQVTFRGMTSECSEIRQAGRPNKPDSITVVITKVTDSYPEPTQLLMGTKSVCEVGSNWFQPIYLGAMFSLQEGDKLMVNVSDISLVDYTKEDKTFFGAFLL
notes: also called VEGI-alpha deletion mutant; the mutant
no binding: all assays above
